Data from the array DNA melting data of Ke et al..

Assay: melting temperature; melt of duplexes
Conditions: sodium 0.0675 M; strand 1 µM
“CGACGTGCTCAATGTGCTG+CAGCACATTAAGCACGTCG (((((((((.(((((((((+))))))))).)))))))))” showed a Tm of 54.4 °C. Work on “CGACGTGCACAATGTGCTG+CAGCACATATCGCACGTCG ((((((((...((((((((+))))))))...))))))))” yielded a Tm of 44.6 °C. With “CGACGTGCTATATGTGCTG+CAGCACATCCCGCACGTCG ((((((((...((((((((+))))))))...))))))))” the Tm was 47.2 °C. With “CGACGTGCTTCATGTGCTG+CAGCACATGCTGCACGTCG ((((((((..(((((((((+)))))))))..))))))))” the Tm was 53.1 °C. Substance “CGACGTGCCACATGTGCTG+CAGCACATTAAGCACGTCG ((((((((...((((((((+))))))))...))))))))” has a Tm of 48.6 °C. “CGACGTGCCTCATGTGCTG+CAGCACATCAAGCACGTCG ((((((((.(.((((((((+)))))))).).))))))))” showed a Tm of 47.9 °C. In the case of “CGACGTGCCTGATGTGCTG+CAGCACATGGTGCACGTCG ((((((((...((((((((+))))))))...))))))))”, the Tm is reported as 47.4 °C. In the case of “CGACGTGCCTTATGTGCTG+CAGCACATTTTGCACGTCG ((((((((...((((((((+))))))))...))))))))”, the Tm is reported as 47.9 °C. With “CGACGTGCTCTATGTGCTG+CAGCACATTGGGCACGTCG ((((((((.(.((((((((+)))))))).).))))))))” the Tm was 53.4 °C. “CGACGTGCTCAATGTGCTG+CAGCACATACTGCACGTCG ((((((((...((((((((+))))))))...))))))))” showed a Tm of 48.7 °C. In the case of “CGACGTGCTGGATGTGCTG+CAGCACATGTGGCACGTCG ((((((((...((((((((+))))))))...))))))))”, the Tm is reported as 52.6 °C. “CGACGTGCAGTATGTGCTG+CAGCACATGAAGCACGTCG ((((((((...((((((((+))))))))...))))))))” gave a Tm of 50.5 °C. Substance “CGACGTGCCTCATGTGCTG+CAGCACATGATGCACGTCG ((((((((.((((((((((+)))))))))).))))))))” has a Tm of 56.7 °C. Work on “CGACGTGCAATATGTGCTG+CAGCACATTCGGCACGTCG ((((((((...((((((((+))))))))...))))))))” yielded a Tm of 49.5 °C. “CGACGTGCGCTATGTGCTG+CAGCACATGTGGCACGTCG ((((((((...((((((((+))))))))...))))))))” gave a Tm of 50.8 °C. Work on “CGACGTGCGCAATGTGCTG+CAGCACATCCTGCACGTCG ((((((((...((((((((+))))))))...))))))))” yielded a Tm of 49.2 °C. Work on “CGACGTGCGTGATGTGCTG+CAGCACATCGGGCACGTCG ((((((((..(((((((((+)))))))))..))))))))” yielded a Tm of 57.5 °C. With “CGACGTGCACAATGTGCTG+CAGCACATCACGCACGTCG ((((((((...((((((((+))))))))...))))))))” the Tm was 45.3 °C. “CGACGTGCCCCATGTGCTG+CAGCACATTCGGCACGTCG (((((((((..((((((((+))))))))..)))))))))” showed a Tm of 51.5 °C. With “CGACGTGCTGGATGTGCTG+CAGCACATAATGCACGTCG ((((((((...((((((((+))))))))...))))))))” the Tm was 50.7 °C. In the case of “CGACGTGCAGGATGTGCTG+CAGCACATCCTGCACGTCG (((((((((((((((((((+)))))))))))))))))))”, the Tm is reported as 66 °C. With “CGACGTGCTATATGTGCTG+CAGCACATGATGCACGTCG ((((((((...((((((((+))))))))...))))))))” the Tm was 51.9 °C. In the case of “CGACGTGCGAGATGTGCTG+CAGCACATATCGCACGTCG ((((((((((.((((((((+)))))))).))))))))))”, the Tm is reported as 60.4 °C. “CGACGTGCAAAATGTGCTG+CAGCACATTACGCACGTCG ((((((((..(((((((((+)))))))))..))))))))” gave a Tm of 51.5 °C. Work on “CGACGTGCTCAATGTGCTG+CAGCACATTGCGCACGTCG ((((((((.((((((((((+)))))))))).))))))))” yielded a Tm of 56.6 °C. In the case of “CGACGTGCCCTATGTGCTG+CAGCACATGCTGCACGTCG ((((((((...((((((((+))))))))...))))))))”, the Tm is reported as 45.4 °C. For “CGACGTGCCATATGTGCTG+CAGCACATAAAGCACGTCG ((((((((..(((((((((+)))))))))..))))))))”, the Tm was 51.3 °C. Work on “CGACGTGCGAGATGTGCTG+CAGCACATTTAGCACGTCG ((((((((.(.((((((((+)))))))).).))))))))” yielded a Tm of 53.3 °C. “CGACGTGCTATATGTGCTG+CAGCACATACCGCACGTCG ((((((((..(((((((((+)))))))))..))))))))” gave a Tm of 49.3 °C. For “CGACGTGCAATATGTGCTG+CAGCACATCGTGCACGTCG (((((((((..((((((((+))))))))..)))))))))”, the Tm was 45.9 °C. Work on “CGACGTGCATAATGTGCTG+CAGCACATCCCGCACGTCG ((((((((...((((((((+))))))))...))))))))” yielded a Tm of 46.9 °C. “CGACGTGCACCATGTGCTG+CAGCACATCTGGCACGTCG ((((((((...((((((((+))))))))...))))))))” gave a Tm of 43.7 °C. With “CGACGTGCAGTATGTGCTG+CAGCACATTATGCACGTCG (((((((((..((((((((+))))))))..)))))))))” the Tm was 52.4 °C. For “CGACGTGCAGCATGTGCTG+CAGCACATTCAGCACGTCG ((((((((.(.((((((((+)))))))).).))))))))”, the Tm was 47.8 °C. Substance “CGACGTGCTGAATGTGCTG+CAGCACATTACGCACGTCG ((((((((..(((((((((+)))))))))..))))))))” has a Tm of 52.7 °C. “CGACGTGCATAATGTGCTG+CAGCACATGAAGCACGTCG ((((((((.(.((((((((+)))))))).).))))))))” showed a Tm of 52.8 °C. With “CGACGTGCGGTATGTGCTG+CAGCACATGTCGCACGTCG (((((((((..((((((((+))))))))..)))))))))” the Tm was 57.1 °C. “CGACGTGCATGATGTGCTG+CAGCACATCCAGCACGTCG ((((((((..(((((((((+)))))))))..))))))))” gave a Tm of 53.6 °C. With “CGACGTGCCGAATGTGCTG+CAGCACATGCTGCACGTCG ((((((((.(.((((((((+)))))))).).))))))))” the Tm was 50.8 °C. Substance “CGACGTGCTCGATGTGCTG+CAGCACATTCAGCACGTCG (((((((((..((((((((+))))))))..)))))))))” has a Tm of 51.9 °C. For “CGACGTGCGAGATGTGCTG+CAGCACATAGTGCACGTCG ((((((((...((((((((+))))))))...))))))))”, the Tm was 47.6 °C. “CGACGTGCAGTATGTGCTG+CAGCACATTCCGCACGTCG ((((((((.(.((((((((+)))))))).).))))))))” showed a Tm of 50.1 °C. “CGACGTGCAATATGTGCTG+CAGCACATCTCGCACGTCG ((((((((.(.((((((((+)))))))).).))))))))” showed a Tm of 48.4 °C. With “CGACGTGCGCTATGTGCTG+CAGCACATTCTGCACGTCG ((((((((...((((((((+))))))))...))))))))” the Tm was 48.6 °C. In the case of “CGACGTGCGAAATGTGCTG+CAGCACATACGGCACGTCG ((((((((...((((((((+))))))))...))))))))”, the Tm is reported as 49 °C. “CGACGTGCGGAATGTGCTG+CAGCACATCATGCACGTCG ((((((((...((((((((+))))))))...))))))))” showed a Tm of 51.9 °C. In the case of “CGACGTGCTGGATGTGCTG+CAGCACATTGGGCACGTCG ((((((((...((((((((+))))))))...))))))))”, the Tm is reported as 52 °C. Work on “CGACGTGCACAATGTGCTG+CAGCACATAGTGCACGTCG ((((((((((.((((((((+)))))))).))))))))))” yielded a Tm of 53.5 °C. Substance “CGACGTGCACAATGTGCTG+CAGCACATTGTGCACGTCG (((((((((((((((((((+)))))))))))))))))))” has a Tm of 63 °C. With “CGACGTGCCGCATGTGCTG+CAGCACATAAAGCACGTCG ((((((((...((((((((+))))))))...))))))))” the Tm was 50.1 °C. “CGACGTGCGCCATGTGCTG+CAGCACATTTCGCACGTCG (((((((((..((((((((+))))))))..)))))))))” gave a Tm of 51.6 °C. In the case of “CGACGTGCCAAATGTGCTG+CAGCACATATTGCACGTCG ((((((((.(.((((((((+)))))))).).))))))))”, the Tm is reported as 48.9 °C. Work on “CGACGTGCGTTATGTGCTG+CAGCACATTGGGCACGTCG ((((((((...((((((((+))))))))...))))))))” yielded a Tm of 50.3 °C. Work on “CGACGTGCTCCATGTGCTG+CAGCACATACCGCACGTCG ((((((((...((((((((+))))))))...))))))))” yielded a Tm of 46.3 °C. With “CGACGTGCGGGATGTGCTG+CAGCACATATGGCACGTCG ((((((((...((((((((+))))))))...))))))))” the Tm was 50.8 °C. “CGACGTGCAGGATGTGCTG+CAGCACATCGTGCACGTCG (((((((((.(((((((((+))))))))).)))))))))” showed a Tm of 58.3 °C. In the case of “CGACGTGCCTTATGTGCTG+CAGCACATGAGGCACGTCG ((((((((((.((((((((+)))))))).))))))))))”, the Tm is reported as 59.4 °C. For “CGACGTGCCGTATGTGCTG+CAGCACATATCGCACGTCG ((((((((..(((((((((+)))))))))..))))))))”, the Tm was 51.8 °C. Work on “CGACGTGCGATATGTGCTG+CAGCACATGGTGCACGTCG ((((((((...((((((((+))))))))...))))))))” yielded a Tm of 49.2 °C. For “CGACGTGCGGCATGTGCTG+CAGCACATGATGCACGTCG ((((((((..(((((((((+)))))))))..))))))))”, the Tm was 58.7 °C. “CGACGTGCCACATGTGCTG+CAGCACATGTTGCACGTCG ((((((((.((((((((((+)))))))))).))))))))” showed a Tm of 57.4 °C. In the case of “CGACGTGCCTTATGTGCTG+CAGCACATTCAGCACGTCG ((((((((...((((((((+))))))))...))))))))”, the Tm is reported as 49 °C. In the case of “CGACGTGCCAAATGTGCTG+CAGCACATTATGCACGTCG ((((((((..(((((((((+)))))))))..))))))))”, the Tm is reported as 51.2 °C. For “CGACGTGCCTCATGTGCTG+CAGCACATATGGCACGTCG (((((((((..((((((((+))))))))..)))))))))”, the Tm was 54 °C. In the case of “CGACGTGCAAGATGTGCTG+CAGCACATGGAGCACGTCG ((((((((...((((((((+))))))))...))))))))”, the Tm is reported as 51.6 °C. With “CGACGTGCGCCATGTGCTG+CAGCACATTAGGCACGTCG ((((((((...((((((((+))))))))...))))))))” the Tm was 48.3 °C. Substance “CGACGTGCCACATGTGCTG+CAGCACATCGTGCACGTCG ((((((((...((((((((+))))))))...))))))))” has a Tm of 46.3 °C. “CGACGTGCCCGATGTGCTG+CAGCACATTCGGCACGTCG (((((((((..((((((((+))))))))..)))))))))” gave a Tm of 54.9 °C. With “CGACGTGCAACATGTGCTG+CAGCACATTGCGCACGTCG ((((((((...((((((((+))))))))...))))))))” the Tm was 48.8 °C. For “CGACGTGCAGTATGTGCTG+CAGCACATGCCGCACGTCG ((((((((.(.((((((((+)))))))).).))))))))”, the Tm was 52.8 °C. “CGACGTGCGCCATGTGCTG+CAGCACATTCGGCACGTCG ((((((((...((((((((+))))))))...))))))))” gave a Tm of 47.5 °C. With “CGACGTGCAGCATGTGCTG+CAGCACATGATGCACGTCG (((((((((.(((((((((+))))))))).)))))))))” the Tm was 61.3 °C.
